Drawing on patent US20240067738A1, this text covers koff for 5 molecules.

Values joined by “and” are separate entries in the source; they are usually repeats but may differ in a detail not shown here. Identical values can stand only once.

To fix the notation:
B1: wild-type canine IgG-B Fc polypeptide (SASA tag) (protein, part only; not given: SASA tag, not shown: another chain or arm of the molecule; small tags and cut ends)
Fc: PAPEMLGGPSVFIFPPKPKDTLLIARTPEVTCVVVDLDPEDPEVQISWFVDGKQMQTAKTQPREEQFNGTYRVVSVLPIGHQDWLKGKQFTCKVNNKALPSPIERTISKARGQAHQPSVYVLPPSREELSKNTVSLTCLIKDFFPPDIDVEWQSNGQQEPESKYRTTPPQLDEDGSYFLYSKLSVDKSRWQRGDTFICAVMHEALHNHYTQESLSHSPGK
B2: variant canine IgG-B Fc polypeptide L(23)M (SASA tag) (protein, part only; not given: SASA tag, not shown: another chain or arm of the molecule; small tags and cut ends)
Fc: PAPEMLGGPSVFIFPPKPKDTLMIARTPEVTCVVVDLDPEDPEVQISWFVDGKQMQTAKTQPREEQFNGTYRVVSVLPIGHQDWLKGKQFTCKVNNKALPSPIERTISKARGQAHQPSVYVLPPSREELSKNTVSLTCLIKDFFPPDIDVEWQSNGQQEPESKYRTTPPQLDEDGSYFLYSKLSVDKSRWQRGDTFICAVMHEALHNHYTQESLSHSPGK
B3: variant canine IgG-B Fc polypeptide L(23)Y (SASA tag) (protein, part only; not given: SASA tag, not shown: another chain or arm of the molecule; small tags and cut ends)
Fc: PAPEMLGGPSVFIFPPKPKDTLYIARTPEVTCVVVDLDPEDPEVQISWFVDGKQMQTAKTQPREEQFNGTYRVVSVLPIGHQDWLKGKQFTCKVNNKALPSPIERTISKARGQAHQPSVYVLPPSREELSKNTVSLTCLIKDFFPPDIDVEWQSNGQQEPESKYRTTPPQLDEDGSYFLYSKLSVDKSRWQRGDTFICAVMHEALHNHYTQESLSHSPGK
B4: variant canine IgG-B Fc polypeptide L(23)S (SASA tag) (protein, part only; not given: SASA tag, not shown: another chain or arm of the molecule; small tags and cut ends)
Fc: PAPEMLGGPSVFIFPPKPKDTLSIARTPEVTCVVVDLDPEDPEVQISWFVDGKQMQTAKTQPREEQFNGTYRVVSVLPIGHQDWLKGKQFTCKVNNKALPSPIERTISKARGQAHQPSVYVLPPSREELSKNTVSLTCLIKDFFPPDIDVEWQSNGQQEPESKYRTTPPQLDEDGSYFLYSKLSVDKSRWQRGDTFICAVMHEALHNHYTQESLSHSPGK
B5: variant canine IgG-B Fc polypeptide L(23)F (SASA tag) (protein, part only; not given: SASA tag, not shown: another chain or arm of the molecule; small tags and cut ends)
Fc: PAPEMLGGPSVFIFPPKPKDTLFIARTPEVTCVVVDLDPEDPEVQISWFVDGKQMQTAKTQPREEQFNGTYRVVSVLPIGHQDWLKGKQFTCKVNNKALPSPIERTISKARGQAHQPSVYVLPPSREELSKNTVSLTCLIKDFFPPDIDVEWQSNGQQEPESKYRTTPPQLDEDGSYFLYSKLSVDKSRWQRGDTFICAVMHEALHNHYTQESLSHSPGK

The target of the experiment is canine FcRn with a poly-His tag and canine B2M heterodimer complex (canine). Nature of the experiment: SPR (Biacore T200), biotinylated canine FcRn/B2M complex on chip, Fc as analyte, pH 6.0. Background: SPR reads the build-up and loss of mass on a sensor chip optically.
Sequence of canine FcRn with a poly-His tag and canine B2M heterodimer complex (canine) (chain, as listed by the source limits assumed, chain 1 of 2): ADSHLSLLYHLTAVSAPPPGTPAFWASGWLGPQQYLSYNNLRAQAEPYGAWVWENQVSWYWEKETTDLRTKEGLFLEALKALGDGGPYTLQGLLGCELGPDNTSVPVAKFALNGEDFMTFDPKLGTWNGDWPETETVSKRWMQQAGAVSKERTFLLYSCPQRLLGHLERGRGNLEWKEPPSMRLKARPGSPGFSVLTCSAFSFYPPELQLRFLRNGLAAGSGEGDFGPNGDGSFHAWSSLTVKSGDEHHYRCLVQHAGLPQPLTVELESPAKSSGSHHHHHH
Sequence of canine FcRn with a poly-His tag and canine B2M heterodimer complex (canine) (b2m, as listed by the source limits assumed, chain 2 of 2): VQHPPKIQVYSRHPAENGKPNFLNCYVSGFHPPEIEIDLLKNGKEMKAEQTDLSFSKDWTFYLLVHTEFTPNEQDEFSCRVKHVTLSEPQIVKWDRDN
For the molecule B1, the dissociation rate constant (koff) (in general, a measure of how fast the partners let go of each other) is 0.122 s⁻¹.

In turn, B2 had a koff of 0.126 s⁻¹. B3 returned a dissociation rate constant (koff) of 0.0138 s⁻¹. This koff lies about 9.1-fold lower than the previous one. B4: the koff was determined as 0.241 s⁻¹.

As to B5, the koff was 0.0631 s⁻¹ and 0.0847 s⁻¹.
